Results from patent US20030082740A1, “Histidine proline rich glycoprotein (HPRG) as an anti-angiogenic and anti-tumor agent” (priority 2001, published 2003).
“Also recorded” adds a separate entry of the source. Each block holds one molecule with its values, some of them ahead of it.

Legend:
HUVEC = experiment: Endothelial cell tube formation on Matrigel; type: cell-based, human; details: for Inhibits Angiogenesis (Matrigel® assay): tube formation, concentration not stated
Protocol: Endothelial cells, for example, human umbilical vein endothelial cells (HUVEC) or human microvascular endothelial cells (HMVEC) which can be prepared or obtained commercially, are mixed at a concentration of 2×10^5 cells/mL with fibrinogen (5 mg/mL in phosphate buffered saline (PBS) in a 1:1 (v/v) ratio. Thrombin is added (5 units/ mL final concentration) and the mixture is immediately transferred to a 24-well plate (0.5 mL per well). The fibrin gel is allowed to form and then VEGF and bFGF are added to the wells (each at 5 ng/mL final concentration) along with the test compound. The cells are incubated at 37° C. in 5% CO2 for 4 days at which time the cells in each well are counted and classified as either rounded, elongated with no branches, elongated with one branch, or elongated with 2 or more branches. Results are expressed as the average of 5 different wells for each concentration of compound. Typically, in the presence of angiogenic inhibitors, cells remain either rounded or form undifferentiated tubes (e.g. 0 or 1 branch).
This assay is recognized in the art to be predictive of angiogenic (or anti-angiogenic) efficacy in vivo (Min, H Y et al., Cancer Res. 56: 2428-2433,1996). In an alternate assay, endothelial cell tube formation is observed when endothelial cells are cultured on Matrigel® (Schnaper et al., J. Cell. Physiol. 165:107-118 1995). Endothelial cells (1×10^4 cells/well) are transferred onto Matrigel®-coated 24-well plates, and tube formation is quantitated after 48 hrs. Inhibitors are tested by adding them either at the same time as the endothelial cells or at various time points thereafter. Tube formation can also be stimulated by adding (a) angiogenic growth factors such as bFGF or VEGF, (b) differentiation stimulating agents (e.g.,. PMA) or (c) a combination of these.
HUVEC were seeded onto Matrigel®-coated 96 well plates. Photomicrographs showing results are in FIGS. 4A and 4B.
Endothelial cell tube formation on Matrigel® was stimulated by incubation for 24 hr with FGF-2 (20 ng/ml ), VEGF (20 ng/ml ) and PMA (40 ng/ml ) for 24 hours (FIG. 4A).
Matrigel® tube formation assays in vitro were carried out as described above.

[1] = test system: human umbilical vein endothelial cell (HUVEC); experiment: bFGF-stimulated HUVEC proliferation (MTS); type: cell-based; details: 48 hours
Protocol: The ability of the compounds of the invention to inhibit the proliferation of EC's may be determined in a 96-well format. Type I collagen (gelatin) is used to coat the wells of the plate (0.1-1 mg/mL in PBS, 0.1 mL per well for 30 minutes at room temperature). After washing the plate (3× w/PBS), 3-6,000 cells are plated per well and allowed to attach for 4 hrs (37° C./5% CO2) in Endothelial Growth Medium (EGM; Clonetics) or M199 media containing 0.1-2% FBS. The media and any unattached cells are removed at the end of 4 hrs and fresh media containing bFGF (1-10 ng/mL) or VEGF (1-10 ng/mL) is added to each well. Compounds to be tested are added last and the plate is allowed to incubate (37° C./5% CO2) for 24-48 hrs. MTS (Promega) is added to each well and allowed to incubate from 1-4 hrs. The absorbance at 490 nm, which is proportional to the cell number, is then measured to determine the differences in proliferation between control wells and those containing test compounds.
bFGF is used to stimulate human umbilical vein endothelial cell (HUVEC) proliferation. Cells are incubated in the presence of bFGF alone or with added inhibitors of proliferation for 48 hours in a 96 well plate. Proliferation is then measured using the colorimetric reagent, MTS. […]

[2] = test system: Lewis lung adenocarcinoma 3LL cells; experiment: Matrigel plug model, 3LL tumor cell-mediated angiogenesis; type: in vivo, mouse; details: concentration not given; FIG. 7 legend
Description: In this assay, tumor cells, for example 1-5×10^6 cells of the 3LL Lewis lung carcinoma or the rat prostate cell line MatLyLu, are mixed with Matrigel® and then injected into the flank of a mouse following the protocol described in Sec. B., above. A mass of tumor cells and a powerful angiogenic response can be observed in the plugs after about 5 to 7 days. The anti-tumor and anti-angiogenic action of a compound in an actual tumor environment can be evaluated by including it in the plug. Measurement is then made of tumor weight, Hb levels or fluorescence levels (of a dextran-fluorophore conjugate injected prior to sacrifice). To measure Hb or fluorescence, the plugs are first homogenize with a tissue homogenizer.
The methods used in this study were essentially the same as described in Example VI except that 3LL tumor cells were used to stimulate angiogenesis instead of bFGF. Lewis lung adenocarcinoma 3LL cells (10^6 cells/plug) were mixed with cold Matrigel prior to injection. After seven days, the animals are sacrificed by cervical dislocation and the Matrigel® plugs recovered and processed as above.

[3] = test system: angiogenesis stimulated by FGF-2; experiment: Matrigel plug model, angiogenesis stimulated by FGF-2; type: in vivo, mice; details: 0.25 μM in plug; 7 days
Protocol: This assay is performed essentially as described by Passaniti et al. (Lab Invest. 67:519-528 (1992). Ice-cold Matrigel® (e.g., 500 μL) (Collaborative Biomedical Products, Inc., Bedford, Mass.) is mixed with heparin (e.g., 50 μg/ml), FGF-2 (e.g., 400 ng/ml) and the compound to be tested. In some assays, bFGF may be substituted with tumor cells as the angiogenic stimulus. The Matrigel® mixture is injected subcutaneously into 4-8 week-old athymic nude mice at sites near the abdominal midline, preferably 3 injections per mouse. The injected Matrigel® forms a palpable solid gel. Injection sites are chosen such that each animal receives a positive control plug (such as FGF-2+ heparin), a negative control plug (e.g., buffer+heparin) and a plug that includes the compound being tested for its effect on angiogenesis, e.g., (FGF-2+heparin+compound). […] Hemoglobin (Hb) levels are determined using Drabkin's solution (e.g., obtained from Sigma) according to the manufacturers' instructions. […] The amount of fluorescence in the dispersed plug, determined fluorimetrically, also serves as a measure of angiogenesis in the plug. […]
In this study, ice-cold Matrigel® (500 μL) was mixed with heparin (50 μg/ml), FGF-2 (400 ng/ml) and the compound to be tested. […] Hemoglobin levels were determined using Drabkin's solution (from Sigma) according to the manufacturers' instructions.

caspase-3 = experiment: Caspase-3 activity in bFGF-stimulated HUVEC; type: cell-based, human; details: rHPRG at 10 and 100 nM, H/P at similar concentrations, relative to HKa
Protocol: The ability of the compounds of the invention to promote apoptosis of EC's may be determined by measuring activation of caspase-3. Type I collagen (gelatin) is used to coat a P100 plate and 5×10^5 ECs are seeded in EGM containing 10% FBS. After 24 hours (at 37° C. in 5% CO2) the medium is replaced by EGM containing 2% FBS, 10 ng/ml bFGF and the desired test compound. The cells are harvested after 6 hours, cell lysates prepared in 1% Triton and assayed using the EnzChek® Caspase-3 Assay Kit #1 (Molecular Probes) according to the manufactures' instructions.
In order to evaluate whether the observed anti-proliferative activity of HPRG was due to an induction of apoptosis, the activity of caspase-3 (an enzyme that is central to several pro-apoptotic pathways) was measured. HUVEC were grown in 100 mm^2 petri dishes in the presence of bFGF or bFGF+HPRG. Cells were extracted and caspase-3 activity measured using a fluorescent substrate.

[4] = test system: CAM of an 8-day old chick embryo; experiment: Chick chorioallantoic membrane (CAM) angiogenesis assay; type: in vivo; details: inhibitor at 20 μg/ml with bFGF 30 μg/ml; counted 4 days after implantation
Protocol: This assay is performed essentially as described by Nguyen et al. (Microvascular Res. 47:31-40 (1994)). A mesh containing either angiogenic factors (bFGF) or tumor cells plus inhibitors is placed onto the CAM of an 8-day old chick embryo and the CAM observed for 3-9 days after implantation of the sample. Angiogenesis is quantitated by determining the percentage of squares in the mesh which contain blood vessels.
This assay was performed essentially as described by Nguyen et al. (Microvascular Res. 47:31-40 (1994)). […] Angiogenesis was quantitated by counting the number of microvessels that contacted the filter. In this experiment, microvessel were counted 4 days after implantation of the filter.

Molecule: APPHG [ATN246]
- Inhibits Angiogenesis (Matrigel® assay) (HUVEC): No
- Inhibits Angiogenesis (Matrigel® assay) (HUVEC; listed as APPHG): no effect on neovascularization

Molecule: His-His-Pro-His-Gly (HHPHG; printed: His-His-Pro-His-Gly) [ATN230]
- Inhibits Angiogenesis (Matrigel® assay) (HUVEC): Yes
- Inhibits Angiogenesis (Matrigel® assay) (HUVEC; listed as HHPHG): active

Molecule: His-Pro-Pro-His-Gly (HPPHG; printed: His-Pro-Pro-His-Gly) [ATN228]
- Inhibits Angiogenesis (Matrigel® assay) (HUVEC): Yes
- Inhibits Angiogenesis (Matrigel® assay) (HUVEC; listed as HPPHG): active

- induction of caspase-3 activity (caspase-3): induction of caspase-3
B1: HPRG: Histidine proline rich glycoprotein; rabbit HPRG has SEQ ID NO:3; applicants' designation ATN-234 (protein, UniProt P04196 19-525, looked up)
Histidine-rich glycoprotein: VSPTDCSAVEPEAEKALDLINKRRRDGYLFQLLRIADAHLDRVENTTVYYLVLDVQESDCSVLSRKYWNDCEPPDSRRPSEIVIGQCKVIATRHSHESQDLRVIDFNCTTSSVSSALANTKDSPVLIDFFEDTERYRKQANKALEKYKEENDDFASFRVDRIERVARVRGGEGTGYFVDFSVRNCPRHHFPRHPNVFGFCRADLFYDVEALDLESPKNLVINCEVFDPQEHENINGVPPHLGHPFHWGGHERSSTTKPPFKPHGSRDHHHPHKPHEHGPPPPPDERDHSHGPPLPQGPPPLLPMSCSSCQHATFGTNGAQRHSHNNNSSDLHPHKHHSHEQHPHGHHPHAHHPHEHDTHRQHPHGHHPHGHHPHGHHPHGHHPHGHHPHCHDFQDYGPCDPPPHNQGHCCHGHGPPPGHLRRRGPGKGPRPFHCRQIGSVYRLPPLRKGEVLPLPEANFPSFPLPHHKHPLKPDNQPFPQSVSESCPGKFKSGFPQVSMFFTHTFPK
- inhibition of bFGF-stimulated proliferation of HUVEC ([1]; 100 nM, FIG. 2A): almost complete
- inhibition of bFGF-stimulated proliferation of HUVEC ([1]; concentration not given, FIGS. 2A, 2B): inhibit proliferation
- inhibition of 3LL tumor-mediated angiogenesis [2]: inhibit 3LL tumor-mediated angiogenesis
- inhibition of angiogenesis (hemoglobin in plug) [3]: completely inhibited angiogenesis; also recorded: inhibit angiogenesis
- neovessel formation (blood vessel number) [4]: capable of inhibiting neovessel formation; also recorded: inhibit angiogenesis
- endothelial cell tube formation on Matrigel (HUVEC; 500 nM, stimulated with FGF-2, VEGF and PMA for 24 hours): almost completely disrupted tube formation; also recorded: inhibition of EC tube formation
